In the nanobody polyreactivity screen of Harvey et al. (2022):

Assay: yeast display, Sf9 membrane polyspecificity reagent, FACS + sequencing; frameworks hold sequencing errors
Procedure, shortened: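 Galactose induction of a Saccharomyces cerevisiae BJ5465 synthetic nanobody display library ran 36–48 hours. The cells were then stained for 1 hour at 4 °C with 10% biotinylated, detergent-solubilized Sf9 membrane reagent, pulled down on streptavidin microbeads and FACS-sorted into low and high (top ~1%) gates on expression and reagent-binding fluorescence. Labels for polyreactivity follow the gate of origin.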

Row | Sequence | polyreactivity (PSR sort gate)
1 | QVQLVESGGGLVQAGGSLRLSCAASGSIFRGNAMGWYRQAPVKERELVAGINRAGSTKYADSVKGRFTISRDNAKNTVYLQMNSLKPEDTAVYYCAAVRYERGLWSDYWGQGTQVTVSS | high polyreactivity
2 | QVQLVESGGGLVQAGGSLRLSCAASGSIFRGYAMGWYRQAPEKERELVAAMSRRGGSTYYADSVKGRFTISRDNAKNTVYLQMNSLKPEDTAVYYCAADWLSWFHGYGMYYWGQGTQVTVSS | low polyreactivity
3 | QVQLVESGGGLVQAGGSLRLSCAASGSIFRGYAMGWYRQAPGKERELVAAINSSGGRTYYADSVKGRFTISRDNAKKTVYLQMNSLKPEDTAVYYCNARSKYPSYFSSMGYWGQGTQVTVSS | high polyreactivity
4 | QVQLVESGGGLVQAGGSLRLSCAASGSIFRGYAMGWYRQAPGKERELVATIDSSAGSTYYADSVKGRFTISRDNAKNTVYLQMNSLIPEDTAVYYCATDPYGYYYSGFDNWGQGTQVTVSS | low polyreactivity
5 | QVQLVESGGGLVQAGGSLRLSCAASGSIFRGYTMGWYRQAPGKERELVAAISRSGGSTYYADSVKGRFTISRDNAKNTVYLQMNSLKPEDTAVYYCNVVYFVTTSPGYDYWGQGTQVTVSS | high polyreactivity
6 | QVQLVESGGGLVQAGGSLRLSCAASGSIFRGYTMGWYRQAPGKERELVAAISTRGGSTYYADSVKGRFTISRDNAKNTVYLQMNSLKPEDTAVYYCNARSRGRASGYDYWGQGTQVTVSS | high polyreactivity
7 | QVQLVESGGGLVQAGGSLRLSCAASGSIFRINGMGCYRQAPGKERELVADITGGGSTYYADSVKGRFTISRDNAKNTVYLHMNSLKPEDTAVYYCAKDYYRSYGREDYWGQGTQVTVSS | low polyreactivity
8 | QVQLVESGGGLVQAGGSLRLSCAASGSIFRINVMGWYRQAPGKERELVAAISYSGGRTYYADSVKGRFTISRDNAKKTVYLQMNSLKPEDTAVYYCAATRSNFIYDYWGQGTQVTVSS | high polyreactivity
9 | QVQLVESGGGLVQAGGSLRLSCAASGSIFRIYAMGWYRQAPGKERELVAAISFSTGSRTYYADSVKGRFTISRDNAKNTVYLQMNSLKPEDTAVYYCAAEYHPRVLYPNWYDYWGQGTQVTVSS | low polyreactivity
10 | QVQLVESGGGLVQAGGSLRLSCAASGSIFRIYAMGWYRQAPGQESELVAAINAGGGRTYYADSVKGRFTISRDNAKNTVYLQMNSLKPEDTAVYYCAARHTEYRQESLYYWGQGTQVTVSS | low polyreactivity
11 | QVQLVESGGGLVQAGGSLRLSCAASGSIFRLNAMGWYRQARGKERELVARIDSSGSTNYTDSVKGRFTISRDNAKNTVYLQMNSLKPEDTAVYYCAAGLVLIVGMDSWGQGTQVTVSS | low polyreactivity
12 | QVQLVESGGGLVQAGGSLRLSCAASGSIFRLNTMGWYRQAPGKEMEFVAAISKGGTSTYYADSVKARFTISRDNAKNTVYLQMNSLKPEDTAVYYCAADYYSLYEATTDFDYWGQGTQVTVSS | high polyreactivity
13 | QVQLVESGGGLVQAGGSLRLSCAASGSIFRLYAMGWYRQAPGKEREFVARIRWRGGCTNYADSVKGRITISRDNAKNTVYLQMNTLKPEDTAVYYCAVKGAGGPKYDYWGHGTQVTVSS | high polyreactivity
14 | QVQLVESGGGLVQAGGSLRLSCAASGSIFRLYAMGWYRQAPGKERELVAAITWRSGSTYYADSVKGRFTISRDNAKNTVYLQMNSLKPEDTAVYYCAADSLYRLYNYWGQGTQVTVSS | high polyreactivity
15 | QVQLVESGGGLVQAGGSLRLSCAASGSIFRPYAMGWYRQAPGKERELVAAISYRGGSTYYADSVKGRFTISRDYAKNTVYLLMNRLKPEDTAVYYCAADSREEGDYWGQGTQVTVSS | low polyreactivity
16 | QVQLVESGGGLVQAGGSLRLSCAASGSIFRPYTMGWYRPAPGKERELVAGITSGGGTYYADSVKGRFTISRDNAKNTVYLQMNSLKPEDTAVYYCAADNWKTRSLVDYWGQGTEVTVSS | high polyreactivity
17 | QVQLVESGGGLVQAGGSLRLSCAASGSIFRRNAMGWYRQAPGKERELVAGIRGSGGSTYYADSVKGRFTISRDNAKNTVYLQMNSLKPEDTAVYYSAARRSYYHGSYDYWGQGTQVTVSS | high polyreactivity
